B1: 5G06NT Format 41 diabody bispecific antibody (anti-G8 x anti-CD3) (bispecific antibody, V domains shown)
VH: EVQLLESGGGLVQPGGSLRLSCAASGFTFSDYYMSWVRQAPGKGLEWVSGINWPGGSTGYADSVKGRFTISRDNSKNTLYLQMNSLRAEDTAVYYCARVEQGYDIYYFYYMDVWGKGTTVTVSS
VL: DIQMTQSPSSLSASVGDRVTITCRASQSISSYLNWYQQKPGKAPKLLIYKASSLESGVPSRFSGSGSGTDFTLTISSLQPEDFATYYCQQSYSAPYTFGPGTKVDIK
B2: 1B03 (G8-1B03, Parent A) Format 41 diabody bispecific antibody (anti-G8 x anti-CD3) (bispecific antibody, V domains shown)
VH: EVQLLESGGGLVQPGGSLRLSCAASGFTFSDYYMSWVRQAPGKGLEWVSGINWNGGSTGYADSVKGRFTISRDNSKNTLYLQMNSLRAEDTAVYYCARVEQGYDIYYYYYMDVWGKGTTVTVSS
VL: DIQMTQSPSSLSASVGDRVTITCRASQSISSYLNWYQQKPGKAPKLLIYKASSLESGVPSRFSGSGSGTDFTLTISSLQPEDFATYYCQQSYSAPYTFGPGTKVDIK
B3: 05A03 scFv (scFv, V domains shown)
VH: EVQLLESGGGLVQPGGSLRLSCAASGYTFSDYYMSWVRQAPGKGLEWVSGINWPGGSTGYADSVKGRFTISRDNSKNTLYLQMNSLRAEDTAVYYCARVEQGYDIYYYYYMDVWGKGTTVTVSS
VL: DIQMTQSPSSLSASVGDRVTITCRASQSISSYLNWYQQKPGKAPKLLIYKASSLESGVPSRFSGSGSGTDFTLTISSLQPEDFATYYCQQSYSAPYTFGPGTKVDIK
notes: As m4: periplasmic-extract scFv
B4: 09D06 scFv (scFv, V domains shown)
VH: EVQLLESGGGLVQPGGSLRLSCAASGFTFSDYYMSWVRQAPGKGLEWVSGINWPGSSTGYADSVKGRFTISRDNSKNTLYLQMNSLRAEDTAVYYCARVRQGYDYYYYYYMDVWGKGTTVTVSS
VL: DIQMTQSPSSLSASVGDRVTITCRASQSISSYLNWYQQKPGKAPKLLIYKASSLESGVPSRFSGSGSGTDFTLTISSLQPEDFATYYCQQSYSAPYTFGPGTKVDIK
notes: as for B3
B5: 09D01 scFv (scFv, V domains shown)
VH: EVQLLESGGGLVQPGGSLRLSCAASGFTFSDYYMSWVRQAPGKGLEWVSGINWHHGSTGYADSVKGRFTISRDNSKNTLYLQMNSLRAEDTAVYYCARVEQGYDIYYYYYMDVWGKGTTVTVSS
VL: DIQMTQSPSSLSASVGDRVTITCRASQSISSYLNWYQQKPGKAPKLLIYKASSLESGVPSRFSGSGSGTDFTLTISSLQPEDFATYYCQQSYSAPYTFGPGTKVDIK
notes: as for B3
B6: 05G09 scFv (scFv, V domains shown)
VH: EVQLLESGGGLVQPGGSLRLSCAASGFTFSDYYMSWVRQAPGKGLEWVGGINWPGGSTDYADSVKGRFTISRDNSKNTLYLQMNSLRAEDTAVYYCARVEQGYDIYYYYYMDVWGKGTTVTVSS
VL: DIQMTQSPSSLSASVGDRVTITCRASQSISSYLNWYQQKPGKAPKLLIYKASSLESGVPSRFSGSGSGTDFTLTISSLQPEDFATYYCQQSYSAPYTFGPGTKVDIK
notes: As m4; also called 0509
B7: 09G01 scFv (scFv, V domains shown)
VH: EVQLLESGGGLVQPGGSLRLSCAASGFTFSDYYMSWVRQAPGKGLEWVSVINWPGSSTGYADSVKGRFTISRDNSKNTLYLQMNSLRAEDTAVYYCARVEQGYDIYYYYYMDVWGKGTTVTVSS
VL: DIQMTQSPSSLSASVGDRVTITCRASQSISSYLNWYQQKPGKAPKLLIYKASSLESGVPSRFSGSGSGTDFTLTISSLQPEDFATYYCQQSYSAPYTFGPGTKVDIK
notes: as for B3
B8: 05A08 scFv (scFv, V domains shown)
VH: EVQLLESGGGLVQPGGSLRLSCAASGYTFSDYYMSWVRQAPGKGLEWVGNINWNGGSTLYADSVKGRFTISRDNSKNTLYLQMNSLRAEDTAVYYCARVEQGYDNYYYYYMDVWGKGTTVTVSS
VL: DIQMTQSPSSLSASVGDRVTITCRASQSISSYLNWYQQKPGKAPKLLIYKASSLESGVPSRFSGSGSGTDFTLTISSLQPEDFATYYCQQSYSAPYTFGPGTKVDIK
notes: as for B3
B9: 05G06 scFv (scFv, V domains shown)
VH: EVQLLESGGGLVQPGGSLRLSCAASGFTFSDYYMSWVRQAPGKGLEWVSGINWPGGSTGYADSVKGRFNISRDNSKNTLYLQMNSLRAEDTAVYYCARVEQGYDIYYFYYMDVWGKGTTVTVSS
VL: DIQMTQSPSSLSASVGDRVTITCRASQSISSYLNWYQQKPGKAPKLLIYKASSLESGVPSRFSGSGSGTDFTLTISSLQPEDFATYYCQQSYSAPYTFGPGTKVDIK
notes: As m4: periplasmic-extract scFv; also called 04A11
B10: 05C04 scFv (scFv, V domains shown)
VH: EVQLLESGGGLVQPGGSLRLSCAASGYTFSDYYMSWVRQAPGKGLEWVSGINWPGGYTGYADSVKGRFTISRDNSKNTLYLQMNSLRAEDTAVYYCARVEQGYDIYYYYYMDVWGKGTTVTVSS
VL: DIQMTQSPSSLSASVGDRVTITCRASQSISSYLNWYQQKPGKAPKLLIYKASSLESGVPSRFSGSGSGTDFTLTISSLQPEDFATYYCQQSYSAPYTFGPGTKVDIK
notes: as for B3

Legend:
[1] = biological target: T1, HLA-A*02:01 / … complex (HLA-PEPTIDE target G8) on cells (human); assay: cell-based or functional assay
CD3 on CD3+ Jurkat cells = biological target: T2, CD3 on CD3+ Jurkat cells; assay: flow cytometry, Format 41 bispecific on CD3+ Jurkat cells
T2 construct: whole, on cells
T2 sequence (P07766 23-207): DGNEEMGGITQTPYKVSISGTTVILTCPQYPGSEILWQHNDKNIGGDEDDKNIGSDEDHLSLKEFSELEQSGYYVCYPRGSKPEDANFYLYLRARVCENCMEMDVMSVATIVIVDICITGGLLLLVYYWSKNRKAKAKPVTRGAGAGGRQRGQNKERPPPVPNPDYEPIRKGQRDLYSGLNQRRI

[2] = biological target: T1, HLA-A*02:01 / … complex (HLA-PEPTIDE …); assay: flow cytometry, Format 41 bispecific on A375 cells expressing ~300,000 copies of the pHLA 10mer
[3] = biological target: T3, biotinylated pHLA: HLA subtype A*02:01 complexed with … (HLA-PEPTIDE target G8) (human); assay: MSD specificity ratio; threshold for selection of the 12 hit clones of Table 14
T3 construct: Soluble biotinylated pHLA coupled to U-PLEX linker 1 in the MSD assay; also called pHLA target
Experimental: G8 scFv screening was conducted using the Meso Scale Discovery U-PLEX Development Pack, 9-assay (cat. No. K15234N). The pack contains a 10-spot U-PLEX plate with 9 activated spots and 9 unique linkers as well as stop solution and read buffer. Biotinylated pHLA and biotinylated Protein L were each diluted to 33 nM using PBS+0.5% BSA. For each plate, 200 μL of the diluted pHLA or protein L was mixed with 300 μL of the corresponding Linker (see Table 9) and incubated at room temperature for 30 minutes.
Following the 30-minute incubation, 200 μL stop solution was added to each linker-pHLA solution. They were again incubated for 30 minutes at room temperature. These volumes were scaled based on the number of plates. The linker-pHLA solutions were then a 10× solution. They were then pooled together and further diluted with stop solution to the final 1× concentration. For example, for one plate with one linker, 600 μL pHLA would be diluted with 5.4 mL stop solution for the 1× concentration with a total volume of 6 mL. For one plate using 8 linkers, 600 μL of each linker was pooled to give 4.8 mL volume and 1.2 mL additional stop solution added for the final 6 mL volume. All volumes were scaled for additional plates. The pooled linker-pHLA solution was then coated onto the 10-spot plate as 50 μL/well, the plate sealed and stored at 4° C. overnight.
Samples, periplasmic extracts (PPE) were diluted 40-fold with PBS+1% BSA. The plate was washed 3 times with PBS+0.05% Tween and samples added as 50 μL/well. Plates were incubated at room temperature shaking for 2 hours. The plates were washed as before and 50 μL of 1 μg/mL SulfoTag anti-Myc tag (Abcam, ab206486) was added to each well. The anti-Myc tag antibody was sulfo-tag labeled using the MSD Gold Sulfo-tag NHS-Ester Conjugation kit (Meso Scale Discovery, R31AA-2) at a challenge ratio of 10. The plates were incubated for 1 hour shaking at room temperature. The plate wash was repeated and 150 μL 2× Read Buffer T (Meso Scale Discovery, R92TC-2) was added to all wells and the plate read immediately on the Quickplex SQ 120.

| Binder | target/OTLA specificity [3] | other results |
| --- | --- | --- |
| B1 | – | EC 50 (nM), cytotoxicity of A375 FoxE1 cells [1]: 0.08 nM; EC50 (CD3 on CD3+ Jurkat cells): 41 nM; EC50 [2]: 0.11 nM |
| B2 | – | EC50 (CD3 on CD3+ Jurkat cells): 161 nM; EC50 [2]: 72.8 nM |
| B3 | > 50 ratio | – |
| B4 | > 50 ratio | – |
| B5 | > 50 ratio | – |
| B6 | > 50 ratio | – |
| B7 | > 50 ratio | – |
| B8 | > 50 ratio | – |
| B9 | > 50 ratio | – |
| B10 | > 50 ratio | – |
